T1: soluble CD73 in human serum/peripheral blood (human, UniProt P21589 27-549, limits assumed)
T1 construct: also called sCD73; free soluble CD73
T1 sequence (looked up): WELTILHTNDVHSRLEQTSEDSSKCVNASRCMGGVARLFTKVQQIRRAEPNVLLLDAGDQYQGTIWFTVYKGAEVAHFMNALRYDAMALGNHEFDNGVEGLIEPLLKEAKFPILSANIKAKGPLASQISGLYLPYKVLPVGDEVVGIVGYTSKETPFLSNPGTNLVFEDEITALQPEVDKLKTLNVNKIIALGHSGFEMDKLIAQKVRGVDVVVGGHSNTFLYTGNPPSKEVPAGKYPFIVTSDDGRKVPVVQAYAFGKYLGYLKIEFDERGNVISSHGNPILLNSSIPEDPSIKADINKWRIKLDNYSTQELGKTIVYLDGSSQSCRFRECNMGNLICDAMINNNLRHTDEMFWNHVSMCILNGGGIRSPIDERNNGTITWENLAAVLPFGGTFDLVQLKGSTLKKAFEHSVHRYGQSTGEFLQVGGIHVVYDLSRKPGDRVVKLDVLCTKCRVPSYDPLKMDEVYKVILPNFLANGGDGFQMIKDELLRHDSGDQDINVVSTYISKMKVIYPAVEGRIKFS

T2: cynomolgus CD73 (in cell lines) (cynomolgus monkey, UniProt A0A2K5V5U7 27-549)
T2 construct: whole, on cells; also called Cyno CD73
T2 sequence: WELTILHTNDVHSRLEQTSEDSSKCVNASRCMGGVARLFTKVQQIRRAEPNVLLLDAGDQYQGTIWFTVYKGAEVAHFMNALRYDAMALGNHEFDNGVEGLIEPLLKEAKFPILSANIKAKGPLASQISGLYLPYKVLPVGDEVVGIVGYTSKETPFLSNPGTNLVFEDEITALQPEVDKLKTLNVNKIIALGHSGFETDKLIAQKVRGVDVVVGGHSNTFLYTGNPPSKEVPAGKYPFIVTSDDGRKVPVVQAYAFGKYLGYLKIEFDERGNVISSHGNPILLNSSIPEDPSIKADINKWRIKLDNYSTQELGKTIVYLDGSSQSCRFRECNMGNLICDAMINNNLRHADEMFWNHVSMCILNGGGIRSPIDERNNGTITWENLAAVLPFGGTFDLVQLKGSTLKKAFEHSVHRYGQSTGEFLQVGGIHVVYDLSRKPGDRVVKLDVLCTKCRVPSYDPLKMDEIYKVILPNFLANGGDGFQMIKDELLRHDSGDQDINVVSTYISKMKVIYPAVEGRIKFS


How the values were obtained:
[1] = molecular target: T1, soluble CD73 in human serum/peripheral …; assay: free (not bound by CD73.A) sCD73 ECL immunoassay on patient samples
Protocol: (§1) The free sCD73 assay utilizes biotinylated anti-CD73 antibody 6E11 (SEQ ID NOs: 28 and 29) to capture drug-unbound sCD73 from the test samples (as it competes with CD73.A for binding to hCD73). MSD Streptavidin Gold assay plates were coated overnight at 2 to 8° C. with 50 μL/well of biotinylated 6E11 diluted to a final concentration of 0.5 μg/mL in 1× DPBS buffer. The following day, the wells were washed using PBS with 0.05% Tween 20 and 0.5× StabilCoat prepared in water was added to wells at 100 μL per well and incubated at room temperature for one hour. Wells were then aspirated and plates were dried and pouched with desiccant. Test samples drawn from study animals were kept frozen at −70° C. […] Bound sCD73 was subsequently detected using ruthenylated anti-CD73 antibody 4C3 (SEQ ID NOs: 38 and 39) (previously prepared with 0.1% Proclin 300 at working concentration) at a final concentration of 0.125 μg/ml in Starting Block (PBS) at 50 μL per well. The plates were incubated for one hour at 25° C. with shaking, at about 500 rpm, and then washed again before adding 1× MSD Read Buffer prepared in water and then read on MSD Sector Imager 600 by electrochemiluminescenece (ECL) technology. […] Test samples were quantified using a 4-parameter logistic fit regression model.

[2] = molecular target: T2, cynomolgus CD73 (in cell lines); assay: CD73 binding in cell lines (cyno), median EC50; method not stated
[3] = molecular target: T1, soluble CD73 in human serum/peripheral …; assay: MSD ECL sandwich immunoassay, 6E11 as capture
Protocol: as §1

Row | binding result [1] | EC50 [2] [nM] | binding result [3] | Binder
1 | binds | 0.3 |  | CD73.4-IgG2C219S.IgG1.1f (antibody, V domains shown, IgG2 CH1/hinge (C219S) with IgG1.1f CH2/CH3 hybrid constant region; also called CD73.A; CD73.4-IgG2CS-IgG1.1f) VH: QVQLVESGGGVVQPGRSLRLSCAASGFTFSNYGMHWVRQAPGKGLEWVAVILYDGSNKYYPDSVKGRFTISRDNSKNTLYLQMNSLRAEDTAVYYCARGGSSWYPDSFDIWGQGTMVTVSS VL: DIQMTQSPSSLSASVGDRVTITCRASQGISSWLAWYQQKPEKAPKSLIYAASSLQSGVPSRFSGSGSGTDFTLTISSLQPEDFATYYCQQYNSYPLTFGGGTKVEIKR
2 |  |  | binds | anti-CD73 antibody 6E11 (antibody, human IgG1, kappa, V domains shown, biotinylated (sites not given), Used as the biotinylated capture reagent on streptavidin plates; also called biotinylated 6E11) VH: EVQLVESGGALVQPGRSLRLSCAASGFTFDDYAMHWVRQAPGKGLEWVSGITWNSGGIGYADSVKGRFTISRDNAKNSLYLQMNSLRAEDTALYYCAKDRYYSSWLLFDNWGQGILVTVSS VL: not shown

Reference: patent US20210147570A1 (Bristol-Myers Squibb, published 2021)
